“And” between values parts separate entries of the source, which are not always exact repeats. Identical values can stand only once. Like-named read-outs stand apart in the source and are kept apart here. Where no end group is shown, it is not given here.

For experiment [1], the target named is stretch-activated channels (SACs) of activated adult rat astrocytes (rat).
Experiment [2] has the same target. The source holds these as a separate data set.
For experiment [3] the target is unchanged. Nature of the experiment: cell-based or functional assay.

B1: GsMTx-4 purified from Grammostola spatulata venom (peptide)
peptide: GCLEFWWKCNPNDDKCCRPKLKCSKLFKLCNFSSG-NH2
modifications: disulfide (positions not given here); not fully specified (bridges); also: 3 disulfides (ICK motif), pairing not given here
Consider B1, for which the kon – broadly, a measure of how fast the partners come together – in experiment [1] came to 340000 M⁻¹ s⁻¹. For the same molecule, in experiment [2], the Kd (commonly a measure of binding affinity in units of concentration) is 631 nM and 415 nM; the off-rate (koff) (in general, the rate constant with which the complex falls apart) amounted to 0.21 s⁻¹; the kon stood at 330000 M⁻¹ s⁻¹. In addition, in experiment [3], the average SAC current after GsMTx-4 washout was 2.28 pA, the average SAC current during GsMTx-4 application turned out to be 0.17 pA, the mean SAC current before GsMTx-4 application is 2.04 pA and the ratio of blocked to unblocked current I/I0 worked out at 0.083. The molecule further yielded a time constant of recovery of SAC current on washout in experiment [3] of 4.7 s.

Source of the values: patent publication US7125847.
